The target of test [1] is T1, human parathyroid hormone receptor 1 (PTHR1) (human, UniProt Q03431 27-593).
T1 sequence (looked up): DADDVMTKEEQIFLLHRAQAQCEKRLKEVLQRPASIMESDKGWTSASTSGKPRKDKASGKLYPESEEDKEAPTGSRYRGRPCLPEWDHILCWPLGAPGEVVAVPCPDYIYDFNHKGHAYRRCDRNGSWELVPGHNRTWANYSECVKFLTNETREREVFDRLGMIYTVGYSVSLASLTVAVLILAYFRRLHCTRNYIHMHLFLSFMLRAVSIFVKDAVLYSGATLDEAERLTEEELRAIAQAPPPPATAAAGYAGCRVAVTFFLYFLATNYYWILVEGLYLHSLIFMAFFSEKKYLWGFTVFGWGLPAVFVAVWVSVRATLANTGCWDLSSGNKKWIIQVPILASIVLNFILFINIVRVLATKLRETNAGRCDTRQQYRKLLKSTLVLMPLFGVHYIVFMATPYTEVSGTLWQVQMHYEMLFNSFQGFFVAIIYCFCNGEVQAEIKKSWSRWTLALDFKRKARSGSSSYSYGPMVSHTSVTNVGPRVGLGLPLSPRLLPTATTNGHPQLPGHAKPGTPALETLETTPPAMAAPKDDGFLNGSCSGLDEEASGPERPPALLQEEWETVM
Description: cell-based or functional assay.

Test [2] has as its target T2, Vitamin D binding protein (DBP) (Homo sapiens (Human)) (UniProt P02774).
T2 sequence: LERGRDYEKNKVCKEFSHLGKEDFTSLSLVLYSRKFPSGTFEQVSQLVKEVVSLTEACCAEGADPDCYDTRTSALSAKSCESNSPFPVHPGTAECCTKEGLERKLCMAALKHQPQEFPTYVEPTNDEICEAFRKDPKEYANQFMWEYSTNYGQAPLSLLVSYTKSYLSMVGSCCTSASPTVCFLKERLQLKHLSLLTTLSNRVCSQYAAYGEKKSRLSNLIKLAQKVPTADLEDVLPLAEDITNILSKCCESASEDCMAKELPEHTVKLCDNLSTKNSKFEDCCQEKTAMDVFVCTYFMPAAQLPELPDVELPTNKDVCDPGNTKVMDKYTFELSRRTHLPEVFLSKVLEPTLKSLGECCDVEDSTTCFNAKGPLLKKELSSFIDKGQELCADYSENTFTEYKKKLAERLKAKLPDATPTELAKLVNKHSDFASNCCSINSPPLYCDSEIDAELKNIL
Description: BLI (Octet Red96), biotinylated EXT607 on streptavidin tips, DBP 0-75 µM.

The target of test [3] is T1, human parathyroid hormone receptor 1 …. Description: cell-based or functional assay. This is another data set of the same source.
Test [4] deals with T2, Vitamin D binding protein (DBP) (Homo sapiens (Human)). Description: BLI (Octet Red96), biotinylated EXT607 on streptavidin tips, DBP 0-75 µM, steady-state fit. Background: Biolayer interferometry detects binding as a change in optical thickness at a sensor tip.
Test [5] shares this target. Description: BLI (Octet Red96), biotinylated EXT608 on streptavidin tips, DBP 0-75 µM, steady-state fit.
For test [6] the target is unchanged. Description: BLI (Octet Red96), biotinylated EXT608 on streptavidin tips, DBP 0-75 µM.

Ends that are not written are not given here.

Take SVSEIQLMHNLGKHLNSMERVEWLRKKLQDVHNFC-NH2 (not fully specified (residue 35); also: acetate salt) [EXT606 (PTH-cys-PEG24-VitD)]: in test [1], the “PTHR1 EC50, calcium mobilization assay in agonist mode” value was 30.5 nM.
Same read-out and setting: the value for SVSEIQLMHNLGKHLNSMERVEWLRKKLQDVHNFC-NH2 (not fully specified (residue 35); also: acetate salt) [EXT615 (PTH-PEG5 kDa-VitD)] was 29.9 nM.

B1: EXT607 (PTH(1-34)-Cys-PEG36-25-hydroxy-vitamin D conjugate, C-terminal acid, R = OH) (peptide)
peptide: SVSEIQLMHNLGKHLNSMERVEWLRKKLQDVHNFC
modifications: C-terminal Cys (position 35) carries succinimido-propionylamino-PEG36-propionyl-aminopropyl-25-hydroxy-Vitamin D on its thiol; C-terminus is free acid (-OH)
Take B1: the maximum response (BLI shift) in test [2] is 1.79 nm. In test [3], the “EC50, cell-based calcium flux assay in agonist mode (percent efficacy)” value was determined as 21 nM. In addition, the Kd in test [4] was determined as 8100 nM.

B2: EXT617 (PTH-PEG20 kDa-VitD) (peptide)
peptide: B1 peptide
modifications: C-terminal Cys thiol conjugated through maleimide-PEG ~20,000 Da (~455 units) to VitD-NH2 (25-hydroxy vitamin D, C3 position); C-terminal amide
Consider B2, for which the “fold increase of PTHR1 EC50 against the conjugates with shorter PEG linkers” value in test [3] was approximately 7 fold. In test [1], the “PTHR1 EC50, calcium mobilization assay in agonist mode” value was 221 nM.

B3: EXT616 (PTH-PEG10 kDa-VitD) (peptide)
peptide: B1 peptide
modifications: C-terminal Cys thiol conjugated through maleimide-PEG ~10,000 Da (~227 units) to VitD-NH2 (25-hydroxy vitamin D, C3 position); C-terminal amide
B3: the “PTHR1 EC50, calcium mobilization assay in agonist mode” value in test [1] came out at 33.6 nM.

B4: EXT608 (PTH(1-34)-Cys-PEG36-25-hydroxy-vitamin D conjugate, C-terminal amide, R = NH2) (peptide)
peptide: B1 peptide
modifications: C-terminal Cys (position 35) carries succinimido-propionylamino-PEG36-propionyl-aminopropyl-25-hydroxy-Vitamin D on its thiol; C-terminal amide (-NH2)
On to B4, for which, in test [3], the “EC50, cell-based calcium flux assay in agonist mode (percent efficacy)” value stood at 22 nM. Further, the “PTHR1 EC50, calcium mobilization assay in agonist mode” value in test [1] was 28.6 nM. Moreover, the Kd in test [5] was 5200 nM. The maximum response (BLI shift) in test [6] was 1.79 nm.
As to SVSEIQLMHNLGKHLNSMERVEWLRKKLQDVHNFC-NH2 (not fully specified (residue 35); also: acetate salt) [EXT611 (PTH-cys-PEG12-VitD)], in test [1], the “PTHR1 EC50, calcium mobilization assay in agonist mode” value came out at 32.3 nM.

The Kd is the concentration at which binding is half-saturated.
